Data taken from IntAct's records for PubMed 17280616.

B1: Maternal embryonic leucine zipper kinase (Homo sapiens), Q14680 (parent)
chain: MKDYDELLKYYELHETIGTGGFAKVKLACHILTGEMVAIKIMDKNTLGSDLPRIKTEIEALKNLRHQHICQLYHVLETANKIFMVLEYCPGGELFDYIISQDRLSEEETRVVFRQIVSAVAYVHSQGYAHRDLKPENLLFDEYHKLKLIDFGLCAKPKGNKDYHLQTCCGSLAYAAPELIQGKSYLGSEADVWSMGILLYVLMCGFLPFDDDNVMALYKKIMRGKYDVPKWLSPSSILLLQQMLQVDPKKRISMKNLLNHPWIMQDYNYPVEWQSKNPFIHLDDDCVTELSVHHRNNRQTMEDLISLWQYDHLTATYLLLLAKKARGKPVRLRLSSFSCGQASATPFTDIKSNNWSLEDVTASDKNYVAGLIDYDWCEDDLSTGAATPRTSQFTKYWTESNGVESKSLTPALCRTPANKLKNKENVYTPKSAVKNEEYFMFPEPKTPVNKNQHKREILTTPNRYTTPSKARNQCLKETPIKIPVNSTGTDKLMTGVISPERRCRSVELDLNQAHMEETPKRKGAKVFGSLERGLDKVITVLTRSKRKGSARDGPRRLKLHYNVTTTRLVNPDQLLNEIMSILPKKHVDFVQKGYTLKCQTQSDFGKVTMQFELEVCQLQKPDVVGIRRQRLKGDAWVYKRLVEDILSSCKV

Variants of: B1
Conditions: with BCL2L14, Q9BZR8
Sequence of BCL2L14, Q9BZR8 (Q9BZR8 whole entry): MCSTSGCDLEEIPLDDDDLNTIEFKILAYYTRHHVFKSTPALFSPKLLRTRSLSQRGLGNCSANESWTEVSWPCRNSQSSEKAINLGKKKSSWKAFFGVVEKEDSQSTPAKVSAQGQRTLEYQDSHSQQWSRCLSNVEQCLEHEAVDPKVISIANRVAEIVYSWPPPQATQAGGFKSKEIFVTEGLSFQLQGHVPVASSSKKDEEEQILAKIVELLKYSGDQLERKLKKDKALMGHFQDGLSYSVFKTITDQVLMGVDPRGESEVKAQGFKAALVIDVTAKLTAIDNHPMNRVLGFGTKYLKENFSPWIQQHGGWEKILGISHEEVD

Variant	effect of a mutation on the interaction
D150A	disrupting interaction
